Test results from paper PMC7933679.

Molecular target: Deinococcus radiodurans MazF (MazF-dr) (Deinococcus radiodurans)
Assay: crystal structure; apo MazF-dr with N-terminal 6x His-tag, 5 mg/mL, sitting-drop vapor diffusion at 293 K; 0.2 M ammonium sulfate, 0.1 M Bis-Tris pH 5.5, 25% w/v PEG 3350; space group P4(3)2(1)2, dimer in the asymmetric unit; 1.3 Å

Deinococcus radiodurans MazF (MazF-dr) (enzyme)
stoichiometry N: 2
